Data: patent publication US20140017734

T1: Monoscaffoldin (truncated CipA), Cohesin 2-CBM3a, Q06851
T1 chain: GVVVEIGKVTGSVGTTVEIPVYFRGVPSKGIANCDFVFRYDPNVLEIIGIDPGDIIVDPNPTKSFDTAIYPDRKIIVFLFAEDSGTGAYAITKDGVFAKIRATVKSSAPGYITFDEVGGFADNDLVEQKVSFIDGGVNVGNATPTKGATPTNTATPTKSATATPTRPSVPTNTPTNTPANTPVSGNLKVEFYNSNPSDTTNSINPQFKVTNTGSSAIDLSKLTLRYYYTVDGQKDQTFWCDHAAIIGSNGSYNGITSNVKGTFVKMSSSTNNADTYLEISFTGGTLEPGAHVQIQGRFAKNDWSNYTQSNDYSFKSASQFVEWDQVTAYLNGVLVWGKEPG

B1: Chimera2 of CbhA (CBM4-Ig-GH9-linker2-CBM3b-Doc) (protein)
chain: LEDNSSTLPPYKNDLLYERTFDEGLCYPWHTCEDSGGKCSFDVVDVPGQPGNKAFAVTVLDKGQNRWSVQMRHRGLTLEQGHTYRVRLKIWADASCKVYIKIGQMGEPYAEYWNNKWSPYTLTAGKVLEIDETFVMDKPTDDTCEFTFHLGGELAATPPYTVYLDDVSLYDPEYTKPVEYILPQPDVRVNQVGYLPEGKKVATVVCNSTQPVKWQLKNAAGVVVLEGYTEPKGLDKDSQDYVHWLDFSDFATEGIGYYFELPTVNSPTNYSHPFDIRKDIYTQMKYDALAFFYHKRSGIPIEMPYAGGEQWTRPAGHIGIEPNKGDTNVPTWPQDDEYAGIPQKNYTKDVTGGWYDAGDHGKYVVNGGIAVWTLMNMYERAKIRGLDNWGPYRDGGMNIPEQNNGYPDILDEARWEIEFFKKMQVTEKEDPSIAGMVHHKIHDFRWTALGMLPHEDPQPRYLRPVSTAATLNFAATLAQSARLWKDYDPTFAADCLEKAEIAWQAALKHPDIYAEYTPGSGGPGGGPYNDDYVGDEFYWAACELYVTTGKDEYKNYLMNSPHYLEMPAKMGENGGANGEDNGLWGCFTWGTTQGLGTITLALVENGLPATDIQKARNNIAKAADRWLENIEEQGYRLPIKQAEDERGGYPWGSNSFILNQMIVMGYAYDFTGDSKYLDGMFDGISYLLGRNAMDQSYVTGYGERPLQNPHDRFWTPQTSKRFPAPPPGIISGGPNSRFEDPTINAAVKKDTPPQKCFIDHTDSWSTNEITVNWNAPFAWVTAYLDEQYTDSETDTPTPTATPAPTVTPTPTPAPTPTPTPTPTATPTPTPTPTPTATPTVTATPTPTPSSTPVKVQYLCENTQTSTQEIKGKFNIVNTGNRDYSLKDIVLRYYFTKEHNSQLQFICYYTPIGSGNLIPSFGGSGDEHYLQLEFKDVKLPAGGQTGEIQFVIRYADNSFHDQSNDYSFDPTIKAFQDYGKVTLYKNGELVWGTPPGGTEPEEPEEPAIVYGDCNDDGKVNSTDVAVMKRYLKKENVNINLDNADVNADGKVNSTDFSILKRYVMKNIEELPYR
B2: wild-type CbhA from Clostridium thermocellum (CBM4-Ig-GH9-linker3-CBM3b-Doc) (protein)
chain: MKFRRSICTAVLLAVLLTLLVPTSVFALEDNSSTLPPYKNDLLYERTFDEGLCYPWHTCEDSGGKCSFDVVDVPGQPGNKAFAVTVLDKGQNRWSVQMRHRGLTLEQGHTYRVRLKIWADASCKVYIKIGQMGEPYAEYWNNKWSPYTLTAGKVLEIDETFVMDKPTDDTCEFTFHLGGELAATPPYTVYLDDVSLYDPEYTKPVEYILPQPDVRVNQVGYLPEGKKVATVVCNSTQPVKWQLKNAAGVVVLEGYTEPKGLDKDSQDYVHWLDFSDFATEGIGYYFELPTVNSPTNYSHPFDIRKDIYTQMKYDALAFFYHKRSGIPIEMPYAGGEQWTRPAGHIGIEPNKGDTNVPTWPQDDEYAGIPQKNYTKDVTGGWYDAGDHGKYVVNGGIAVWTLMNMYERAKIRGLDNWGPYRDGGMNIPEQNNGYPDILDEARWEIEFFKKMQVTEKEDPSIAGMVHHKIHDFRWTALGMLPHEDPQPRYLRPVSTAATLNFAATLAQSARLWKDYDPTFAADCLEKAEIAWQAALKHPDIYAEYTPGSGGPGGGPYNDDYVGDEFYWAACELYVTTGKDEYKNYLMNSPHYLEMPAKMGENGGANGEDNGLWGCFTWGTTQGLGTITLALVENGLPATDIQKARNNIAKAADRWLENIEEQGYRLPIKQAEDERGGYPWGSNSFILNQMIVMGYAYDFTGDSKYLDGMFDGISYLLGRNAMDQSYVTGYGERPLQNPHDRFWTPQTSKRFPAPPPGIISGGPNSRFEDPTINAAVKKDTPPQKCFIDHTDSWSTNEITVNWNAPFAWVTAYLDEQYTDSETDKVTIDSPVAGERFEAGKDINISATVKSKTPVSKVEFYNGDTLISSDTTAPYTAKITGAAVGAYNLKAVAVLSDGRRIESPVTPVLVKVIVKPTVKLTAPKSNVVAYGNEFLKITATASDSDGKISRVDFLVDGEVIGSDREAPYEYEWKAVEGNHEISVIAYDDDDAASTPDSVKIFVKQARDVKVQYLCENTQTSTQEIKGKFNIVNTGNRDYSLKDIVLRYYFTKEHNSQLQFICYYTPIGSGNLIPSFGGSGDEHYLQLEFKDVKLPAGGQTGEIQFVIRYADNSFHDQSNDYSFDPTIKAFQDYGKVTLYKNGELVWGTPPGGTEPEEPEEPAIVYGDCNDDGKVNSTDVAVMKRYLKKENVNINLDNADVNADGKVNSTDFSILKRYVMKNIEELPYR

Experiments:
[1] = target: Monoscaffoldin (truncated CipA), Cohesin 2-CBM3a (UniProt Q06851)
[2] = target: T1, Monoscaffoldin (truncated CipA), …

Row | Molecule | yield of soluble sugar from Avicel after 119 hour digestion, with the adaptor relative to without it [1] | yield of soluble sugar from Avicel after 119 hour digestion, with the adaptor relative to without it [2]
1 | Chimera1 of CbhA (CBM4-Ig-GH9-linker1-CBM3b-Doc) | increased by factors of 1.55 and 1.73 | 
2 | B1 |  | increased by factors of 1.55 and 1.73
3 | B2 |  | increased by a factor of only 1.09
